From patent US20170029530A1 (AbbVie / Abbott, published 2017)

T1: rat DPEP3 ECD with histidine tag (rat, UniProt Q5U2X4 36-459, limits assumed)
T1 construct: also called rDPEP3-His; ratDPEP3-His; not shown: histidine tag
T1 sequence: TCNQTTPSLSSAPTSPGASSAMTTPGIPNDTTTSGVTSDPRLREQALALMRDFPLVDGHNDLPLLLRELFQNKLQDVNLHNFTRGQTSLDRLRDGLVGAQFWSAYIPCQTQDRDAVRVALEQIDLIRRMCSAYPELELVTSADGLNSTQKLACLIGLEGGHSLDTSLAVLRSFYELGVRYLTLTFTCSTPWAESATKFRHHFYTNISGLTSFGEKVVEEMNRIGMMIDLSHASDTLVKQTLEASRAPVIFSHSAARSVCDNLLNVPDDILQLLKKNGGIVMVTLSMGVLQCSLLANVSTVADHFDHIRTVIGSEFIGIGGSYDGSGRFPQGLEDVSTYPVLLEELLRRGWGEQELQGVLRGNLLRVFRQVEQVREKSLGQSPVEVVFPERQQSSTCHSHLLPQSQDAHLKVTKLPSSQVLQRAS

T2: hDPEP1-His (human, UniProt P16444 17-385, limits assumed)
T2 construct: Neither the origin nor the limits of this protein are described; not shown: histidine tag
T2 sequence (looked up): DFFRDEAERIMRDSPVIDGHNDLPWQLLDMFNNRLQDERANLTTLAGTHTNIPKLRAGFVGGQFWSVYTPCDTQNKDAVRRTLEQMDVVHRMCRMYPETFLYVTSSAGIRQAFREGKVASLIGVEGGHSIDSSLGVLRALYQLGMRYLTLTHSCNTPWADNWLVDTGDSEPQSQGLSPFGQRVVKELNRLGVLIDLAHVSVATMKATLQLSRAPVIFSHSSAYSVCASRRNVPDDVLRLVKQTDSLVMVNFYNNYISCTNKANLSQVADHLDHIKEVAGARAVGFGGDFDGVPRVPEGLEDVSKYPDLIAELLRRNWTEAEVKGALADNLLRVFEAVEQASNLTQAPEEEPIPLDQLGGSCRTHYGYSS

T3: mDPEP3 (limits assumed)
T3 construct: also called mouse DPEP3-His; mouse DPEP3 ECD with histidine tag
T3 single chain: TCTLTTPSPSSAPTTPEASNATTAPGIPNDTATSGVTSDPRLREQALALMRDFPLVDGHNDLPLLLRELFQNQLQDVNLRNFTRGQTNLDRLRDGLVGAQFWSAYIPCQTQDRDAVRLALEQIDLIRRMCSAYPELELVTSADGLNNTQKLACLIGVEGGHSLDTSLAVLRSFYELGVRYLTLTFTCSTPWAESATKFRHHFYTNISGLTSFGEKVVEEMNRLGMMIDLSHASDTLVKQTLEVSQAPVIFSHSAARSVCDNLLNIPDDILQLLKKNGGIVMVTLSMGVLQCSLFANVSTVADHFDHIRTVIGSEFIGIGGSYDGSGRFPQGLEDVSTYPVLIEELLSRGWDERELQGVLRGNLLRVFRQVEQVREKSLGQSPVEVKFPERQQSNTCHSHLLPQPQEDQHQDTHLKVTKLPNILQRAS

T4: human DPEP3 (hDPEP3) protein on the cell surface (human, UniProt Q9H4B8 36-463, GPI anchor at the C-terminus after removal of the final 25 amino acids)
T4 construct: The assay field says which
T4 sequence: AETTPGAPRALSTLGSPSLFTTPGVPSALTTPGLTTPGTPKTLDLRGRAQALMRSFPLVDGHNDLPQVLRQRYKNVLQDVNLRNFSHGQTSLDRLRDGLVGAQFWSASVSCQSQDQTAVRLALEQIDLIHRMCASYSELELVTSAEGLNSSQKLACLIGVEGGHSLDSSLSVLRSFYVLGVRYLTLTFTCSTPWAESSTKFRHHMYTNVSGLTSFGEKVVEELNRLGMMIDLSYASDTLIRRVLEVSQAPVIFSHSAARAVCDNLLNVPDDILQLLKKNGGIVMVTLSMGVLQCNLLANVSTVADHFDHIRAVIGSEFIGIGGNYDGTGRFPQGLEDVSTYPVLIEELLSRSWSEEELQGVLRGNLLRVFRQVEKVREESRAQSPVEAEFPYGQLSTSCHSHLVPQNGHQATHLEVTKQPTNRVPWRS


Key:
[1] = biological target: T1, rat DPEP3 ECD with histidine tag; test: SPR, BIAcore 2000, antibody captured with anti-human capture kit
hDPEP1-His = biological target: T2, hDPEP1-His; test: as above
[2] = biological target: T5, hDPEP2 ECD with histidine tag (human, UniProt Q9H4A9 33-463); test: as above
T5 construct: also called hDPEP2-His; not shown: histidine tag

mDPEP3 = biological target: T3, mDPEP3; test: ELISA, coated antigen
[3] = biological target: T1, rat DPEP3 ECD with histidine tag; test: ELISA, coated antigen
[4] = biological target: T5, hDPEP2 ECD with histidine tag; test: ELISA, coated antigen
[5] = biological target: T4, human DPEP3 (hDPEP3) protein on the …; test: flow cytometry, HEK-293T cells overexpressing hDPEP3
Method: The isolated cells were incubated for 30 mins. with anti-DPEP3 antibodies and washed twice in PBS/2% FCS. The cells were incubated for 15 mins. with 50 μL per sample AlexaFluor-647 labeled goat-anti-mouse IgG, Fc fragment specific secondary antibody diluted 1:200 in PBS/2% FCS, washed twice with PBS/2% FCS and re-suspended in PBS/2% FCS with DAPI ([…]). The cells were analyzed on a BD FACS Canto II flow cytometer with anti-DPEP3 antibodies.

T5 sequence (Q9H4A9 33-463): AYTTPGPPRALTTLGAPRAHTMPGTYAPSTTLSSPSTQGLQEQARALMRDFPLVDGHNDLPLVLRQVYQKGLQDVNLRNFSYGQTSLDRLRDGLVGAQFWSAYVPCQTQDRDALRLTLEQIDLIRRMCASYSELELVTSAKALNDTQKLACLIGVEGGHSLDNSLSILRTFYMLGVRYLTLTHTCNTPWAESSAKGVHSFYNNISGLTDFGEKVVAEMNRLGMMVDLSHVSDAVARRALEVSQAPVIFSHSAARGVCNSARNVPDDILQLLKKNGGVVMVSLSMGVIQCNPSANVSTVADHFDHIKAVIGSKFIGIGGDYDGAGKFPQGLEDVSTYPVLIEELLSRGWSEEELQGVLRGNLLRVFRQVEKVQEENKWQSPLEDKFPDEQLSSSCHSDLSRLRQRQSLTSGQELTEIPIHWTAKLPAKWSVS

binding result [1]	binding result (hDPEP1-His)	binding result [2]	binding result (mDPEP3)	binding result [3]	binding result [4]	binding result [5]	Binder
no binding	no binding	binds	–	–	–	–	hSC34.14 humanized anti-DPEP3 antibody (antibody, human IgG1, kappa, V domains shown, Human IgG1/kappa) VH: QVQLVQSGAEVKKPGASVKVSCKASGYTFTDYYMHWVRQAPGQRLEWMGRVNPKKGGTTYNQKFEGRVTITRDTSASTAYMELSSLRSEDTAVYYCAMGIYYSYDASFDYWGQGTTVTVSS VL: DIQMTQSPSSLSASVGDRVTITCRTSEHIYSYLAWYQQKPGKAPKLLIYNAKTLAEGVPSRFSGSGSGTDFTLTISSLQPEDFATYYCQHHYDTPYTFGQGTKLEIKR
–	–	–	no binding (tested: 1 ug/mL)	no binding (tested: 1 ug/mL)	no binding (tested: 1 ug/mL)	binds	SC34.36 (antibody, mouse IgG2a, V domains shown) VH: QVQLQQPGSVLVRPGASVKLSCKASGYTFTSYWMHWVKQRPGQGLEWIGEISPTSGRPNYNAKFKGKATLTVDTSSSTAYVDLSSLTSEDSAVYYCAKGEGYYGKAFDYWGQGTTLTVSS VL: DIQMTQTTSSLSASLGDRVTISCRASQDISNYLNWYQQKPDGTVKLLIYYTSRLHSGVPSRFSGSGSGTDYSLTISNLEQEDIATYFCQQGNTLPWTFGGGTKLEIK
